# Assay results taken from US11046988B2, “Process for the modification of a glycoprotein using a β-(1,4)-N-acetylgalactosaminyl transferase or a mutant thereof” (Synaffix B.V., priority 2014, dated 2021).
# B1: TnGalNAcT: truncated Trichoplusia ni β-(1,4)-GalNAcT, amino acids 33-421 of SEQ ID NO: 4 (SEQ ID NO: 8) (protein)
# chain: SPLRTYLYTPLYNATQPTLRNVERLAANWPKKIPSNYIEDSEEYSIKNISLSNHTTRASVVHPPSSITETASKLDKNMTIQDGAFAMISPTPLLITKLMDSIKSYVTTEDGVKKAEAVVTLPLCDSMPPDLGPITLNKTELELEWVEKKFPEVEWGGRYSPPNCTARHRVAIIVPYRDRQQHLAIFLNHMHPFLMKQQIEYGIFIVEQEGNKDFNRAKLMNVGFVESQKLVAEGWQCFVFHDIDLLPLDTRNLYSCPRQPRHMSASIDKLHFKLPYEDIFGGVSAMTLEQFTRVNGFSNKYWGWGGEDDDMSYRLKKINYHIARYKMSIARYAMLDHKKSTPNPKRYQLLSQTSKTFQKDGLSTLEYELVQVVQYHLYTHILVNIDERS
# modifications: TnGalNAcT(33-421)
# Experiment: Coupled glycosyltransferase assay (R&D Systems Glycosyltransferase Activity Kit, malachite green, 620 nm): transfer of F2-GalNAz to GlcNAc
# Type: biochemical
# Design: Data from the determination of the specific activity: unit not given here
# Settings: for Data from the determination of the specific activity: GlcNAc 20 mM, UDP-F2-GalNAz 500 μM, 20 min, room temperature, plate read at 620 nm; for specific activity: UDP-F2-GalNAz 500 μM to GlcNAc 20 mM, 5 mM MgCl2 and 5 mM MnCl2, pH 7.5, linear regression; for transferase activity compared with GalT(Y289L): transfer of F2-GalNAz from UDP-F2-GalNAz (18) to GlcNAc, FIG. 7 / FIG. 8
# Excerpt: In brief, the glycosyltransferase kit determines the activity of a particular glycosyltransferase by means of a coupled assay that detects the release of liberated UDP upon transfer of the donor sugar (from the sugar-UDP nucleotide) to an acceptor sugar. In more detail, the UDP that is liberated upon transfer of sugar is hydrolyzed by a particular enzyme (CD39L3/rectonucleoside triphosphate diphosphohydrolase-3, also known as NTPDase-3) thereby generating UMP and one equivalent of phosphate (Pi). The latter phosphate in turn is detected by malachite green, which is also added to the mixture. A green color develops in proportion to the amount of inorganic phosphate released and the absorbance of the color at 620 nm is measured as a direct measure of the activity of the glycosyltransferase. In the present case, transfer of F2-GalNAz from the UDP-substrate to GlcNAc on the protein is accompanied by release of UDP, which is hydrolyzed by CD39L3 and the generated phosphate. Preferably, the derived or wild type β-(1,4)-GalNAcT enzyme used in the process according to the invention has at least 30%, 33%, 50%, 75%, 100%, 150%, 200%, or more preferably at least 300% of the UDP-F2-GalNAz transfer activity as compared to the UDP-F2-GalNAz transfer activity of the β-(1,4)-galactosyltransferase mutant enzyme Bos taurus GalT-Y289L (SEQ ID NO: 1), wherein the transfer activity is assessed using the R&D Systems Glycosyltransferase Activity Kit and applying the conditions as indicated in detail in Example 18 and using equal amounts of the enzyme to be tested and β-(1,4)-galactosyltransferase mutant enzyme Bos taurus GalT-Y289L (SEQ ID NO: 1).
# Specific activity of enzymes was determined by a coupled glycosyltransferase procedure as described by Wu et al. in Glycobiology 2010, 21, 723-733, incorporated by reference, and commercially available as a kit from R&D system.
# In short, a glycosyltransferase reaction was carried out in 50 μL of reaction buffer (25 mM Tris, 150 mM NaCl, 5 mM MgCl2 and 5 mM MnCl2, pH 7.5) in a 96-well plate at room temperature for 20 min. To determine the kinetic parameters of a glycosyltransferase, multiple reactions with varying amounts of the enzyme were carried out simultaneously (0.01, 0.02, 0.04, 0.06, 0.08, 0.10 and 0.12 μg of enzyme) in the presence of fixed amounts of all other components (GlcNAc: 20 mM, UDP-F2-GalNAz: 500 μM), including the coupling phosphatase 1 (ENTPD3/CD39L3) (2.5 μL of 20 ng/μL solution). A well containing all components except for the enzyme served as a blank control. The reactions were initiated by adding the substrates and phosphatase to the enzyme and terminated by the addition of 30 μL of Malachite reagent A and 100 μL of water to each well. The color was developed by the addition of 30 μL of Malachite reagent B to each well followed by gentle mixing and incubation at room temperature for 20 min. Following color development, the plate was read at 620 nm with a multi-well plate reader. A phosphate standard curve was also performed to determine the conversion factor between the absorbance and the inorganic phosphate contents. Preparation of UDP-F2-GalNAz is described in Example 13.
# The specific activity of the GalNAcTs described herein were compared to GalT(Y289L), an enzyme known to transfer UDP-GalNAz as previously disclosed in WO 2007/095506 and WO 2008/029281 (both Invitrogen Corporation).
# A graph depicting the conversion (in pmol/min/m) plotted against the amount of enzyme is shown in FIG. 7 (for Table 1) and FIG. 8 (for Table 2). From these plots specific activities were calculated by linear regression. […]
Molecule,Data from the determination of the specific activity (0.01 μg enzyme),Data from the determination of the specific activity (0.02 μg enzyme),Data from the determination of the specific activity (0.04 μg enzyme),Data from the determination of the specific activity (0.06 μg enzyme),Data from the determination of the specific activity (0.08 μg enzyme),Data from the determination of the specific activity (0.1 μg enzyme),Data from the determination of the specific activity (0.12 μg enzyme),specific activity [pmol/min/µg],"activity for transfer of an azido-GalNAc derivative, times higher than GalT(Y289L) (relative to GalT(Y289L), FIG. 7) [times]",transferase activity compared with GalT(Y289L)
"CeGalNAcT: truncated Caenorhabditis elegans β-(1,4)-GalNAcT, amino acids 30-383 of SEQ ID NO: 2 (SEQ ID NO: 6)",0.031,0.066,0.14,0.162,0.265,0.301,0.348,426,10,significantly higher
B1,0,0.007,0.025,0.051,0.073,0.083,0.102,140,–,significantly higher
